Assay results as given in PMC11338459, “Cryo-EM structures of the human band 3 transporter indicate a transport mechanism involving the coupled movement of chloride and bicarbonate ions” (PLOS Biology, 2024).

Molecular target: the molecule itself
Experiment: cryo-EM structure; detergent-solubilized raw ghost membrane of human RBC reconstituted into MSP1E3D1 nanodiscs (POPC:POPE:POPG), enriched on Superose 6 in 20 mM Tris-HCl pH 7.5, 100 mM NaCl; Build and Retrieve processing; OF-IF and IF-IF dimers

B1: human band 3 anion transporter (natural protein, UniProt P02730 1-911, looked up)
chain: MEELQDDYEDMMEENLEQEEYEDPDIPESQMEEPAAHDTEATATDYHTTSHPGTHKVYVELQELVMDEKNQELRWMEAARWVQLEENLGENGAWGRPHLSHLTFWSLLELRRVFTKGTVLLDLQETSLAGVANQLLDRFIFEDQIRPQDREELLRALLLKHSHAGELEALGGVKPAVLTRSGDPSQPLLPQHSSLETQLFCEQGDGGTEGHSPSGILEKIPPDSEATLVLVGRADFLEQPVLGFVRLQEAAELEAVELPVPIRFLFVLLGPEAPHIDYTQLGRAAATLMSERVFRIDAYMAQSRGELLHSLEGFLDCSLVLPPTDAPSEQALLSLVPVQRELLRRRYQSSPAKPDSSFYKGLDLNGGPDDPLQQTGQLFGGLVRDIRRRYPYYLSDITDAFSPQVLAAVIFIYFAALSPAITFGGLLGEKTRNQMGVSELLISTAVQGILFALLGAQPLLVVGFSGPLLVFEEAFFSFCETNGLEYIVGRVWIGFWLILLVVLVVAFEGSFLVRFISRYTQEIFSFLISLIFIYETFSKLIKIFQDHPLQKTYNYNVLMVPKPQGPLPNTALLSLVLMAGTFFFAMMLRKFKNSSYFPGKLRRVIGDFGVPISILIMVLVDFFIQDTYTQKLSVPDGFKVSNSSARGWVIHPLGLRSEFPIWMMFASALPALLVFILIFLESQITTLIVSKPERKMVKGSGFHLDLLLVVGMGGVAALFGMPWLSATTVRSVTHANALTVMGKASTPGAAAQIQEVKEQRISGLLVAVLVGLSILMEPILSRIPLAVLFGIFLYMGVTSLSGIQLFDRILLLFKPPKYHPDVPYVKRVKTWRMHLFTGIQIICLAVLWVVKSTPASLALPFVLILTVPLRRVLLPLIFRNVELQCLDADDAKATFDEEEGRDEYDEVAMPV
modifications: N-linked N-acetylglucosamine (NAG) at N642
notes: band 3 anion transporter (AE1), human erythrocyte form of 911 amino acids, encoded by SLC4A1; endogenous protein from ghost membranes; the model of each subunit holds residues 372-888 except 743-751; Native protein from a crude membrane extract, identified from the cryo-EM maps (Build and Retrieve, Model Angelo); PC and PIP2 lipids lie at the subunit interface; also called band 3 transporter; …
- stoichiometry N: 2
